This passage reports Kd results from patent publication US20140154817A1 (WALTER AND ELIZA HALL INSTITUTE OF MEDICAL RESEARCH, published 2014).

The term Kd denotes the concentration at which binding is half-saturated. A low value points to higher affinity.

The target of one test is T1, Human IGF-I (human, UniProt P05019 49-118).
T1 construct: mature
The test can be described thus: ITC, 25 °C, IGF-I titrated into IR485 pre-mixed with 10-fold IR αCT peptide. The procedure:
(§1) ITC experiments were performed using a VP-ITC isothermal titration calorimeter (MicroCal Inc., USA) with the calorimeter cell held at 25° C. All samples were degassed prior to injection or placement into the cell, and the instrument was temperature equilibrated prior to the start of the injections. In all experiments the volume of sample placed in the cell was 1.4 ml and the titrant was injected in 7 μl volumes over 14 s at 3 min intervals, with the total number of injections being 40. The sample contents were stirred at a speed of 310 rpm over the duration of the titration. […] Data were analyzed using the instrument's software incorporated within the Origin 7 software (OriginLab, USA) and in all cases fitted as a single-site interaction using the methodologies outlined in the instrument's manual.
A general note: ITC needs no label: the signal is the heat of the interaction.

For test [1], the target named is T2, Zinc-free porcine insulin (porcine, UniProt P01315 88-108; P01315 25-54).
T2 construct: mature; Made zinc-free by dialysis against 0.1% acetic acid and lyophilisation; also called ZFP-insulin
Nature of the test: ITC, 25 °C, hormone titrated into IR485 pre-mixed with 10-fold IR αCT peptide. The procedure: as §1

T2 sequence (P01315 88-108 limits assumed, chain 1 of 2): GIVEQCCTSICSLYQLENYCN
T2 sequence (P01315 25-54 limits assumed, chain 2 of 2): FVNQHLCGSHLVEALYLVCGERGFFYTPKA

B1: IR485 pre-complexed with a 10-fold molar ratio of IR classical αCT peptide (other)
chain: HLYPGEVCPGMDIRNNLTRLHELENCSVIEGHLQILLMFKTRPEDFRDLSFPKLIMITDYLLLFRVYGLESLKDLFPNLTVIRGSRLFFNYALVIFEMVHLKELGLYNLMNITRGSVRIEKNNELCYLATIDWSRILDSVEDNHIVLNKDDNEECGDICPGTAKGKTNCPATVINGQFVERCWTHSHCQKVCPTICKSHGCTAEGLCCHSECLGNCSQPDDPTKCVACRNFYLDGRCVETCPPPYYHFQDWRCVNFSFCQDLHHKCKNSRRQGCHQYVIHNNKCIPECPSGYTMNSSNLLCTPCLGPCPKVCHLLEGEKTIDSVTSAQELRGCTVINGSLIINIRGGNNLAAELEANLGLIEEISGYLKIRRSYALVSLSFFRKLRLIRGETLEIGNYSFYALDNQNLRQLWDWSKHNLTTTQGKLFFHYNPKLCLSEIHKMEEVSGTKGRQERNDIALKTNGDKASCENELLKFSYIRTSFDKISDDDDKEQKLISEEDLN
peptide: TFEDYLHNVVFVPRPS
notes: Non-covalent receptor fragment and peptide mixture in the ITC cell; also called IR485 + (10 × IR-αCT)
On to B1, for which the Kd in the test with Human IGF-I was 490 nM; in test [1] it was 17 nM.
